Laboratory results as given in paper PMC3303827.

Key:
[1] = target: U266 derived IgE λ light chain (dimer) (human (endogenous in U266)); assay: ESI-Qq-TOF mass spectrometry; nano-spray; sample in 25 mM PBS pH 7.4; spectra deconvoluted by MaxEnt
[2] = target: U266 derived IgE λ light chain (dimer) (human (endogenous in U266)); assay: SEC; Superdex 75 10/300 GL; 1 g/L light chain in 25 mM PBS pH 7.4; mobile phase 100 mM Na2SO4, 25 mM Na2HPO4 pH 7.4; calibrated with BSA, chymotrypsinogen A, lysozyme
[3] = target: U266 derived IgE λ light chain (dimer) (human (endogenous in U266)); assay: SEC; Superdex 75 10/300 GL; 1 g/L light chain in 20 mM HCl pH 2.0; mobile phase 100 mM Na2SO4, 25 mM Na2HPO4 pH 7.4; calibrated with BSA, chymotrypsinogen A, lysozyme
[4] = target: U266 derived IgE λ light chain (dimer) (human (endogenous in U266)); assay: ESI-Qq-TOF mass spectrometry; nano-spray; sample in 20 mM HCl pH 2.0 (methods say pH 2.7); spectra deconvoluted by MaxEnt

Measured: stoichiometry N

U266 derived IgE λ light chain (dimer) (natural protein)
2: all assays above
